Target: T1, SAN1 D90A (catalytically inactive) (mouse or human ( for the …, UniProt Q6RI63 1-786, D90A))
T1 sequence: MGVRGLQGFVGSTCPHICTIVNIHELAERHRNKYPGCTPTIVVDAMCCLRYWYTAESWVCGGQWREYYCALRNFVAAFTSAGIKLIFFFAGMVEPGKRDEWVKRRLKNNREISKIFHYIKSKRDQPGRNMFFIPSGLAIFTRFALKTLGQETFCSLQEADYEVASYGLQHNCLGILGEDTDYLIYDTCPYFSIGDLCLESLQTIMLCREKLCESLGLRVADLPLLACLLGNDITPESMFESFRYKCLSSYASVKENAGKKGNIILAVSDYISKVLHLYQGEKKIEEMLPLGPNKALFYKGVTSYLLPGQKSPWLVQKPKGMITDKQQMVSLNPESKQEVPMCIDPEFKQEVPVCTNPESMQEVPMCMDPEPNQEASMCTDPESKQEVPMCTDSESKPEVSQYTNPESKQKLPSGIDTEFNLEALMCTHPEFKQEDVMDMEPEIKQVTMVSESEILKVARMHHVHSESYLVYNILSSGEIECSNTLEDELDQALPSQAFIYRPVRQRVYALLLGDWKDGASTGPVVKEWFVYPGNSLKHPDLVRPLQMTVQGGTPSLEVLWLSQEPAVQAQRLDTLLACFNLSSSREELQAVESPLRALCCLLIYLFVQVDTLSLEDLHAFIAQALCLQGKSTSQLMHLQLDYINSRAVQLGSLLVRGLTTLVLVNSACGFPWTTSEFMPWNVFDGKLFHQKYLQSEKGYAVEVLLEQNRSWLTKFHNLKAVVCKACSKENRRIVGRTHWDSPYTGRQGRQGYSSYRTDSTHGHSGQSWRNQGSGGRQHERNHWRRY
Assay: EMSA; 5 mM Mg2+; protein 0, 1, 5, 10, 20 nM; DNA 1 nM; EMSA: 20 mM HEPES pH 7.4, 0.1% NP-40, 0.1 M KCl, 5 mM MgCl2, 1% glycerol, 0.25 ug/uL BSA, 1 mM DTT, 30 min, room temperature; 5% native gel, 0.5x TBE
Conditions: protein: recombinant; tags: Strep-tag II (murine, C-terminal) or Strep-FLAG (human); label: 5' 32P; single strand 50 nt

**Q.** Does AACGTCATAGACGATTACATTGCTAGGACATCTTTGCCCACGTTGACCCA (ssDNA) [X4] bind?
**A.** binds
